Assay: label from the status in PepcDB records
With “AKGKNVIVLHLESFQQFLIDYKLNIDGKQYEVTPFLNSLYHSKETFAFSNFFHQVKAGKTSDAETLMETSLFGLNQGSFFVQYGGDNTQQAAPHILKDTNNYSSAVFHGNIGTFWNRNNAYKQLGYQHFFDQSYMSKMTKDNSFQYGLNDKVMFADSIKYLEHMQQPFYTKFITVSNHYPYQSLDGDDTGFPLAKTEDKTINGYFATANYLDAAIKDFFDYLKASGLYKNSIIVMYGDHYGIANSRNTDLAPLLGKDSQTWTEYNNAMLQRVPYMIHVPGTDKGFISNTYGGEVDALPTLLHLLGIDNKNYIELGQDLLSPNNKQLVAFRSEGNYITPNYTSYSGRVYDTKTGV” the protein production was “failed”. In the case of “AKGLRTVKTCVGSDWCRFGTQDSTGLGIRIERFMWGSWTPAKLKMAVSGCPRNCAEATCKDIGVICVDSGFEIHFAGAAGLDIKGTEVLGLVRTEDEALEYIVALTQMYREQARYLERIYKWAKRIGLEEIRRQIMGDAEK”, the protein production is reported as “failed”. In the case of “AKLMNRFSTTKLNPLIGSAGVSAVPMAARVSNKVGLEANAQNFLLMHAMGPNVAGVIGSAVAAGVMIKYVMG”, the protein production is reported as “failed”. For “ALQAGRLGSTVFVANLDYKVGWKKLKEVFSMAGVVVRADILEDKDGKSRGIGTVTFEQSIEAVQAISMFNGQLLFDRPMHVKMDERALPKGDFFPPERPQQ”, the protein production was “not failed”. With “ALTGHTVLVGWDGEASERIVELLGQDTSTSRAGLVICDSIITENPLPGRASFIKGDSLDSPAVLSRAGVVGAQRILVHTQSDSLTLAIVLTLKSLGPTGHVVAHFNNSERAALARTYAPELECTSNMAIEMLVRSAQDPGSSSVIT” the protein production was “failed”. For “ANSQLRKQRDENAELAERLASLLKMLPAGVVELSPDGRVIAENLAAESLISGCYIGEYWEAVLERLLTQEADGSFALEAGGESRRLTLQYQDLPASGGRIVLIHDV”, the protein production was “failed”. With “ANVKLLLPYILKWEGGFVHDPADAGGATNKGVTIATWKRVGYDKDGDGDIDVEDLKLLTDDDVLNRVLKPFYWDRWKADLIESQKVANILVDWVWGSGKYGIVIPQRILGVQADGIVGNKTLQAVNSADPDELFESIFDARREFLEDITARSIKKYEDSIGRKATERELLRHTNKRFLRGWLNRLEDI” the protein production was “not failed”. In the case of “AQGVGVEAILLLRRECQASHEDALHLGLAEHAPVIELQTLRKLDGQAVSLIFHRYSAVYHELLADYQGGSVRQYLAECGLPLSRAQSLIGARLPSREEAGLLLMPRHMPALTVLTVSCDGAGQPVELSRSVSRSDRFQYQVATAIPTR”, the protein production is reported as “not failed”. In the case of “AQSILEKADEIRFPQDSFQVNVAIRTAAPDHAEDLYRYQVLSKGNENSIVMITEPASERGQAILMKGRDLWVFMPSVSQPIRLSLSQRLTGQVANGDIARANFTGDYHPQLLRNESIDDEDYYVLELTGIDRSVTYQKVLLWVNQSNFRPYKAEFYSVSGRLLKTSRYENFDNILGEMRPTRIIMEDALKSGEVSVLDYSDMKLRDLPDKIFTKDYLKR”, the protein production is reported as “not failed”. In the case of “AQTDPSQLKKEGSDAFNAKNYPVAYAKFSEYLKQTNNQDSAIAYYCGMAADEVKKYAEAVTFFDIAIQKKFNIGNAYARKALALDAMKKTDEYVATLEEGLKVDPDNKTMIKNYGLHYLKAGIAAQKAGKVEEAEECFKKVIPLDHKTYKTNALYSLGVLCYNDGANILKKAAPLANSDADKYAAEKEKADGRFKEAIGYLEEATKVSPEDTKSKTMLSQVQAAMK”, the protein production is reported as “not failed”. In the case of “ARHPQRVVAAILVAPASPESFSENGHILPEHDDTPTIRNLLPKQTLGICGLVIASENDPWMPFNQAASLAKSFGLPTINLGLSGHINVDSGHGQWPLIDVLVGNFL”, the protein production is reported as “failed”. With “ARIARVVVHPDYRSDGLGQLSVKAALEWIAERRIPEMRKKKHFVETIAQMARYNPFFEKVGFRYVWETASG” the protein production was “failed”. With “ARLEPLLIGGLYPKNLEDRILIKLDQAPPYLLDGLVAVEDRDFYHHFGVSPKSIARAIWVNTSQGQMRQGGSTLTQQLVKNFYLTNERSLSRKLTEAMMAVLLEIHYSKQEILEAYLNEVFVGQDGQRAVHGFGLASQYFFSQPLSELKIHQVAMLVGLVKGPSFYNPRRNP” the protein production was “failed”. For “ARLVQLSRHSIAFPSPEGALREPNGLLALGGDLSPARLLMAYQRGIFPWFSPGDPILWWSPDPRAVLWPESLHISRSMKRFHKRSPYRVTMNYAFGQVIEGCASDREEGTWITRGVVEAYHRLHELGHAHSIEVWREDELVGGMYGVAQGTLFCGESMFSRMENASKTALLVFCEEFIGHGGKLIDCQVLNDHTASLGACEIPRRDYLNYLNQMRLGRLPNNFWVPRCLFSPQE”, the protein production was “not failed”. In the case of “ARNAEAEGRLVRECRELLERHAFEELTVPDIAECLGVSVRTLQTALRAETGATPSELLRSIRLDRAREMLLEANPREQSVTAVAEQCGFTHQGRFSALYVKAFGELPSESLRR”, the protein production is reported as “failed”. With “ARNAVMVIDGIPVTKSSNTINDALEGVTFNLLKANPGTTTTLTVEKDKSNVEAAVNAFVKAYNDLEKTIGNLSRYDAANKQASVLTGDSTMRMIQNRMRAMLGGNQSAAGGINSLSELGISFQKDGTLALDNNKLSAVLNNPDKNIAAFFTTQGGDDTTSVEGFASRLSELIDGMTRSDGLISSRMDGINSTIKGIGKQREALEFRLESVEKRLRAQFTALDTMIASMNQ” the protein production was “not failed”. In the case of “ARQVTPGQVMVASTVAKLATIIDGEEDSTQRMGFETILPLREGNGPTLFCFHPASGFAWQFSVLSRYLDPQWSIIGIQSPRPHGPMQTAANLDEVCEAHLATLLEQQPHGPYYLLGYSLGGTLAQGIAARLRARGEQVAFLGLLDTWPPETQNWQEKEANGLDPEVLAEINREREAFLAAQQGSTSTELFTTIEGNYADAVRLLTTAHSVPFDGKATLFVAERTLQEGMTPEQAWAPWIAELDIYRQDCAHVDIISPEYFKEIGPLINTQINN”, the protein production is reported as “failed”. With “ASISEVAAITGLTQDTLRWYEREGMIPTIARGSDRRRRYSERDVRLIELLVKLRTTGMPTSDMQRFAVLLAGGAETHERRLALLLAHRERILAQQARLDDALAALDTKVDHYR” the protein production was “failed”. For “ASRDLLKEFPQPKNLLNSVIGRALGISHAKDKLVYVHTNGPKKKKVTLHIKWPKSVEVEGYGSKKIDAERQAAAAACQLFKGWGLLGPRNELFDAAKYRVLADRFG”, the protein production was “not failed”. In the case of “ATDVAARGLDISGVTHVYNYDIPQDPESYVHRIGRTGRAGKEGMAITFVQPREMGYLRIVEETTKKRMQPLQAPTWDEAFAGQLRVATEKIQEAITEENLADYKTFANELLEKYDATDIAAAMLKMLAKEPDKTPVHITEERPLPSRGGGGYKGK”, the protein production is reported as “not failed”. With “ATITHQEKLLTVDTTAHPFLKALGGHEGTDIFPLFMDPYNGLMVMRASFAPGLTLPLHFHTGTVHMYTISGCWYYTEYPGQKQTAGCYLYEPGGSIHQFNTPRDNEGQTEVIFMLSGCNVNFTQDGTYLGLSDAGVIKNWVDRAIREQDNGLRYIAAAVPTYAA” the protein production was “not failed”. In the case of “AVGSGSEGFIVRLPAALLFKEGGIEVENSDGFLFVKRMAEIVNRLPKDVHVEVRGHTDTLPLPAQAPQDKLELTAKRALSVSKLLVKEGIDPKRITTVGRGDQDPLTHARTPEAQESNRRVDIYLYPKE”, the protein production is reported as “not failed”. In the case of “AVNEENIMIPKGVEVYEITGPYFFGIATKFEETMAQLGDRPNVRIIRMRKVPFIDSTGIHNLTTLCEMSQKEKITVILSGVNEKVYKVLEKSGFYELLGKENICPNFKIALDRAEEV”, the protein production is reported as “failed”. In the case of “AVPGEVRLQVKDLRSVGGSALNGVNMTLRAGQIYGIAGVGGNGQAELANALMGLPQATEGDIHLAPFGDLRNASAEQRRQLRIASIPADRYGAALAGSLSVAENFGIGNIHSGHYGSFWRLGYKRLKQDAQRAVESFDVQGVRSLDQKAALLSGGNAQKLVIAREFSRDPQLVLVHSPSRGLDVRATQAVHDRLRAARDAGAAVLLISEDLDEVLALADRIGVMNGGRIVAEFDHPADRQAIGKAMVSHD”, the protein production is reported as “failed”. With “AWKGEVLANNEAGQVTSIIYNPGDVITIVAAGWASYGPTQKWGPQGDREHPDQGLICHDAFCGALVMKIGNSGTIPVNTGLFRWVAPNNVQGAITLIYNDVPGTYGNNSGSFSVNIGKDQS” the protein production was “not failed”. In the case of “AYSELQMLSPSERQCVETVVNMGYSYECVLRAMKKKGENIEQILDYLFAH”, the protein production is reported as “not failed”. In the case of “CDLERYPLTDLSEETFWNSESNAELALTSLYRGSLTDGVEYNPSDWWSYHGMIMMEHLSDNAFDRRGENNPFFKISSGNLTADNAFIKRYWETSYKRIGYCNRFLVGIQNSSESEKKTRMIAEARFLRATQYFYLASYFKNVPLVENVLTGEEANNVTKTSQADILKWCVTEFTAAAADLPRFSAIPAGEAGRACKQAALAFLGRTCMLQKDWKSGAKAFHDIMELGDNAINANYQELFYPSTGTSNKENIFYIQYLENYLGTGLPQHALSAKDGGWSLVNPAADLYESYEFKDGTPFSYDDPRYDPSNLGKDRDPRLDYTIYYNGAIFMGTEYKMSPDYSAAKKEKLDYTSEASRTGFMMRKYFEESTPINDVQSANGLTPVIRYAEVLLGYLECLVEDNQTITQGILDETINAVRGRASVNMPPVTEVTPAKLREIVRHERRIELAMEGIRYWDIMRWGIAHEVLSQKIWGAPYPGSTQYATTTKEVDPTGNYRWYVGKRAFRNPTDYTWPIPQSEQNINPNLRD”, the protein production is reported as “not failed”. For “CMPYRVEIFDTSHHSSSQCVGGMVVYENNAFQKNSYRRYHLKGSDEYTQMSELLTRRALDFAKEPPPNLWVIDGGRAQLNIALEILKSSGSFVEVIAISKEKRDSKAYRSKGGAKDIIHTPSDTFKLLPSDKRLQWVQKLRDESHRYAINFHRSTKLKNMKQI”, the protein production was “failed”. In the case of “CTNYSLLKLAGDVESNPGPTIFSKASADLNALSTSLGELTGMLKDLKAKAETYSPFYKMAKMLFKLATLAVAAMRTKDPVVVVMLIADFGLEVFDTGFFFSYFQEELQPYMKTIPGKISDLVTDAATAAAQIPKGVYSFVSSFFETPEGAVEKQ”, the protein production is reported as “failed”. In the case of “DARVQVMGIDAGGTMTDTFFVKENGSFVVGKAQSNPEDESLAIYNSSQDALSHWKSDVSKVYPELVTCVYSGTAMLNRVVQRRGMEVGLICNKGFEQMHSMGRALQSYLGYALEERLHINTHKYDDPLIPLKRIRGVTERTDVKGQVVIPVRQEEVKVAVKELLEAGAKAIVICLLQSHKNAESERIVRDIALKEIEKLGKN”, the protein production is reported as “failed”. In the case of “DAVELFKKANAMLDEDEDERVDEAALRQLTEMGFPENRATKALQLNHMSVPQAMEWLIEHAEDPTIDTPL”, the protein production is reported as “not failed”. In the case of “DDLEVGKNIDESAYSGIYENNAYLRDGKSNLVSKVVELHGETYATTVKMGLSKTPNTATSAKVKIDAAYLETYNKAHNTDFALYPQDLVTFANEGILTVNANTKSAEVEMTIRAGEGLQEDKTYAIPVAISDQSSDITIKDEDAKHCIYLVKDMRNAGDAYKGEGVMQGYLFFEVNDVNPLNTLSFQLENGKLLWDVVVLFAANINYDAEAGRPRVQCNPNVQYLLDNNETLLQPLRRRGVKVLLGLLGNHDITGLAQLSEQGAKDFAREVAQYCKAYNLDGVNYDDEYSNSPDLSNPSLTNPSTAAAARLCYETKQAMPDKLVTVFDWGQMYGVATVDGVDAKEWIDIVVANYGSAAYPIGQMTKKQCSGISMEFNLGGGGSLSASKAQSMIDGGYGWFMGFAPSPAKYGSVFSRLQGGGEVLYGSNVAAPTIFYKKNDPTPYKYPDDL”, the protein production is reported as “not failed”. For “DDNERLSKVEKARQLREQVNDLFSRKFGEAIGMGFPVKVPYRKITINPGCVVVDGMPPGVSFKAPSYLEISSMRRILDSAEFIKFTVIRPFPGLVINNQLV”, the protein production was “not failed”. In the case of “DELEAAAESLEDGSLILEGSTDIRHVSLLLNRDLVDESEEYSTLSGYILFHLGRLPENGQKMHADGYIFEVVTMDGHKIEKVHIVADP”, the protein production is reported as “failed”.

— a protein production outcome set (Wang et al. 2014)
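Further: failed if final PepcDB status was selected cloned or expressed and not failed if soluble or beyond.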
